Several values for one entry are separate records, joined by “and”; a condition that tells them apart may be missing. Equal entries are not always repeated.
Key:
human UCN2 peptide [1] = target: T1, human UCN2 peptide (human, UniProt Q96RP3 72-109, limits assumed, not fully specified; biotin at N- or C-terminus in the ELISA); assay: ELISA, biotinylated hUCN2 on streptavidin plates
T1 construct: also called hUCN2; hUCN2 (NT Biotin)
T1 peptide (looked up): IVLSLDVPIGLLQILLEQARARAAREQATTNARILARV
Experimental: (§1) Streptavidin (Thermo, Cat: 21125) was diluted in PBS with a concentration of 2 μg/mL. 100 μL of diluted streptavidin was added per well to ELISA microplates, and the plates were incubated overnight at 4° C. Plates were blocked with ELISA blocking solution (containing 2% w/v BSA, 0.05% (v/v) Tween-20, pH 7.4 PBS buffer) at 37° C. for 1 hour, and then incubated with either 1 μg/mL hUCN1 (NT Biotin), hUCN1 (CT Biotin), hUCN2 (NT Biotin), hUCN2 (CT Biotin), hUCN3 (NT Biotin), or hUCN3 (CT Biotin) for 1 hour at 37° C. […] 100 μl of TMB Substrate (Biopanda, Cat: TMB-S-003) was added, and the plates were incubated at room temperature for 15 minutes. 100 μL of ELISA stopping solution (Solarbio, Cat #: C1058) was then added to terminate the reaction, and the OD450 nm was determined by an ELISA plate reader (Molecular Devices, Spectra max 384 plus).

human UCN1 peptide = target: T2, human UCN1 peptide (human, UniProt P55089 83-122, not fully specified; biotin at N- or C-terminus in the ELISA); assay: cell-based or functional assay
T2 peptide (looked up): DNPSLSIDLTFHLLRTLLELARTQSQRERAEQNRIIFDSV

human UCN3 peptide [2] = target: T3, human UCN3 peptide (human, UniProt Q969E3 120-157, not fully specified; biotin at N- or C-terminus in the ELISA); assay: ELISA, biotinylated hUCN3 on streptavidin plates
T3 construct: also called hUCN3; hUCN3 (NT Biotin)
T3 peptide (looked up): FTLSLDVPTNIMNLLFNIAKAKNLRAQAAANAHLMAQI
Experimental: as §1

biotinylated CRH [3] = target: T4, biotinylated CRH (human and mouse, not fully specified; biotinylated, position not stated); assay: Octet in-tandem, row = 1st mAb; competitor (2nd mAb) PR303394
T4 construct: also called Biotin-CRH; biotin-labeled CRH
T4 peptide: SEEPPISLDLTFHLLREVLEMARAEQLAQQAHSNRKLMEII
Experimental: (§2) SA sensors (Fortebio, Cat #18-5019) were hydrated in running buffer for 10 mins.

biotinylated CRH [4] = target: T4, biotinylated CRH; assay: Octet in-tandem, row = 1st mAb; competitor (2nd mAb) PR005660
Experimental: as §2

human UCN2 peptide [5] = target: T1, human UCN2 peptide; assay: ELISA on streptavidin-captured hUCN2 (NT biotin) and hUCN2 (CT biotin), mAb at 100 nM and 10 nM, OD450
Experimental: as §1

biotinylated CRH [6] = target: T4, biotinylated CRH; assay: Octet in-tandem, row = 1st mAb; competitor (2nd mAb) PR006669
Experimental: as §2

biotinylated CRH [7] = target: T4, biotinylated CRH; assay: Octet in-tandem, row = 1st mAb; competitor (2nd mAb) PR301777
Experimental: as §2

biotinylated CRH [8] = target: T4, biotinylated CRH; assay: Octet BLI, biotinylated CRH on SA sensor
CRH (CT Biotin) = target: T5, CRH (CT Biotin) (human and mouse, C-terminal K-Biotin); assay: ELISA, biotin peptide on streptavidin plate
T5 construct: also called Peptide 4 (CRH-Biotin)
T5 peptide: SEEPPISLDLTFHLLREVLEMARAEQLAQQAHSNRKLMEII
Procedure, shortened: (§3)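 First, streptavidin (2 μg/ml in PBS) is coated onto wells overnight at 4° C. Then, following peptide capture and binding, TMB is added for 15 minutes at room temperature. Finally, the reaction is stopped and OD450 nm is measured.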

CRH (NT Biotin) = target: T6, CRH (NT Biotin) (human and mouse, not fully specified; biotin at the N-terminus); assay: ELISA, biotin peptide on streptavidin plate
T6 peptide: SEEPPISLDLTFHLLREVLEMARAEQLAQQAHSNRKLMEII
Procedure, shortened: as §3

hUCN1 (CT Biotin) = target: T7, hUCN1 (CT Biotin) (human, UniProt P55089 83-122, biotin at the C-terminus); assay: ELISA, biotin peptide on streptavidin plate
T7 construct: also called human UCN1 (CT biotin)
T7 peptide (looked up): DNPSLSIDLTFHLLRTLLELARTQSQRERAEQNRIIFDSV
Procedure, shortened: as §3

hUCN1 (NT Biotin) = target: T8, hUCN1 (NT Biotin) (human, UniProt P55089 83-122, biotin at the N-terminus); assay: ELISA, biotin peptide on streptavidin plate
T8 construct: also called human UCN1 (NT biotin)
T8 peptide (looked up): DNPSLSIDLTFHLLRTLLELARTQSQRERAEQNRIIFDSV
Procedure, shortened: as §3

N-Terminal CRH = target: T9, N-Terminal CRH (human and mouse, C-terminal K-Biotin); assay: ELISA, biotin peptide on streptavidin plate
T9 construct: also called N-Ter-CRH (CT-Bion)
T9 peptide: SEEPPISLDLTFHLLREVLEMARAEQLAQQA
Procedure, shortened: as §3

biotinylated CRH [9] = target: T4, biotinylated CRH; assay: Octet in-tandem, row = 1st mAb; competitor (2nd mAb) PR302341-34
Experimental: as §2

biotinylated CRH [10] = target: T4, biotinylated CRH; assay: Octet in-tandem, row = 1st mAb; competitor (2nd mAb) PR302334
Experimental: as §2

human UCN3 peptide [11] = target: T3, human UCN3 peptide; assay: ELISA on streptavidin-captured hUCN3 (NT biotin) and hUCN3 (CT biotin), mAb at 100 nM and 10 nM, OD450
Experimental: as §1

[12] = target: T10, corticotropin-releasing hormone (CRH) peptide (human and mouse, not fully specified); assay: cell-based or functional assay
T10 peptide: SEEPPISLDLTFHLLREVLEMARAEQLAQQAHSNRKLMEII

biotinylated CRH [13] = target: T4, biotinylated CRH; assay: competitive ELISA, coated 1st mAb; competitor PR006148
Experimental: (§4) For epitope binding, a competitive ELISA was performed. Specifically, 1 μg/ml of capture antibody, 100 μl/well, was coated on a 96 well-plate at 4° C. overnight. Plates were blocked with ELISA blocking solution (containing 2% w/v BSA, 0.05% (v/v) Tween-20, pH 7.4 PBS buffer) at 37° C. for 1 hour. […] Subsequently, plates were washed and incubated with Streptavidin-Peroxidase (SIGMA, Cat: 52438-250UG) at 37° C. for 1 hour. 100 μL of 3,3′,5,5′-tetramethylbenzidine (TMB) substrate (Biopanda, Cat: TMB-S-003) was added, and the plates were incubated at room temperature for 15 minutes. 100 μL of ELISA stopping solution (Solarbio, Cat #: C1058) was added to terminate the reaction, and the optical density at 450 nm (OD450 nm) was determined by an ELISA plate reader (Molecular Devices, Spectra max 384 plus).

biotinylated CRH [14] = target: T4, biotinylated CRH; assay: competitive ELISA, coated 1st mAb; competitor PR302064
Experimental: as §4

biotinylated CRH [15] = target: T4, biotinylated CRH; assay: competitive ELISA, coated 1st mAb; competitor PR006152
Experimental: as §4

biotinylated CRH [16] = target: T4, biotinylated CRH; assay: competitive ELISA, coated 1st mAb; competitor PR301777
Experimental: as §4

biotinylated CRH [17] = target: T4, biotinylated CRH; assay: competitive ELISA, coated 1st mAb; competitor PR005660
Experimental: as §4

biotinylated CRH [18] = target: T4, biotinylated CRH; assay: competitive ELISA, coated 1st mAb; competitor PR302069
Experimental: as §4

biotinylated CRH [19] = target: T4, biotinylated CRH; assay: competitive ELISA, coated 1st mAb; competitor PR302055
Experimental: as §4

biotinylated CRH [20] = target: T4, biotinylated CRH; assay: competitive ELISA, coated 1st mAb; competitor PR004290
Experimental: as §4

biotinylated CRH [21] = target: T4, biotinylated CRH; assay: competitive ELISA, coated 1st mAb; competitor PR302050
Experimental: as §4

biotinylated CRH [22] = target: T4, biotinylated CRH; assay: competitive ELISA, coated 1st mAb; competitor hIgG1
Experimental: as §4

human UCN3 peptide [23] = target: T3, human UCN3 peptide; assay: ELISA on streptavidin-captured hUCN3 (NT biotin) and hUCN3 (CT biotin), mAb at 100 nM and 10 nM; axis labelled RLU, scale 0-4
Experimental: as §1

human UCN2 peptide [24] = target: T1, human UCN2 peptide; assay: ELISA on streptavidin-captured hUCN2 (NT biotin) and hUCN2 (CT biotin), mAb at 100 nM and 10 nM; axis labelled RLU, scale 0-4
Experimental: as §1

Row | Binder | Kd (biotinylated CRH [8]) [nM] | koff (biotinylated CRH [8]) [s⁻¹] | kon (biotinylated CRH [8]) [M⁻¹ s⁻¹] | EC50 (CRH (CT Biotin)) | EC50 (CRH (NT Biotin)) [nM] | EC50 (hUCN1 (CT Biotin)) | EC50 (hUCN1 (NT Biotin)) | EC50 (N-Terminal CRH) [nM] | CHO-CRE-hCRHR1 0.5 nM CRH IC50 [12] | % Inhibition (biotinylated CRH [13]) [%] | % Inhibition (biotinylated CRH [14]) [%] | % Inhibition (biotinylated CRH [15]) [%] | % Inhibition (biotinylated CRH [16]) [%] | % Inhibition (biotinylated CRH [17]) [%] | % Inhibition (biotinylated CRH [18]) [%] | % Inhibition (biotinylated CRH [19]) [%] | % Inhibition (biotinylated CRH [20]) [%] | % Inhibition (biotinylated CRH [21]) [%] | % Inhibition (biotinylated CRH [22]) [%] | further results
1 | PR302341-55 (antibody, human IgG1, kappa, V domains shown, Humanized, PTM-removed variant of PR302341) VH: QVQLVQSGAEVKKPGASVKVSCKASGYTFTDYFMKWVRQAPGQRLEWMGVINPNNADIFYNQKFKGRVTITRDTSASTAYMELSSLRSEDTAVYYCARGTDRALFAYWGQGTLVTVSS VL: DVVMTQSPLSLPVTLGQPASISCRSGQSIVHSDGNTYLEWYQQRPGQSPRLLIYKVSNRFSGVPDRFSGSGSGTDFTLKISRVEAEDLGVYYCFQGSHIPWTFGGGTKVEIKR | – | – | – | – | – | – | – | – | – | – | – | – | – | – | – | – | – | – | – | binding result (human UCN2 peptide [1]): no binding (tested: 100 nM); potency on hUCN1-induced against CRH-induced hCRHR1 reporter activity (human UCN1 peptide): 267 fold lower; binding result (human UCN3 peptide [2]): no binding (tested: 100 nM)
2 | PR302309-8 (antibody, human IgG1, kappa, V domains shown, Humanized variant of PR302309) VH: QIQLVQSGSELKKPGASVKVSCKASGYTFTNYGMNWVRQAPGQGLEWMGWINTYTGEPIYTDDFKGRFVFSLDTSVSTAYLQISSLKAEDTAVYYCSRSTMITTGGVFAYWGQGTLVTVSS VL: DVVMTQSPLSLPVTLGQPASISCRSSQTIVHSDGNTYLEWYQQRPGQSPRLLIYKVSNRFSGVPDRFSGSGSGTDFTLKISRVEAEDLGVYYCFQGSHVPWTFGGGTKVEIKR | 0.513 | 0.000136 | 266000 | 0.029 nM | 0.025 | 1.88 nM | 0.126 nM | 0.025 | 1.7 nM | – | – | – | – | – | – | – | – | – | – | % Inhibition (biotinylated CRH [3]): 77%; % Inhibition (biotinylated CRH [4]): 76%; binding result (human UCN2 peptide [5]): no binding (tested: 100 nM); % Inhibition (biotinylated CRH [6]): 76%; % Inhibition (biotinylated CRH [7]): 80%; % Inhibition (biotinylated CRH [9]): 74%; % Inhibition (biotinylated CRH [10]): 65%; binding result (human UCN3 peptide [11]): no binding (tested: 100 nM)
3 | PR302050 (antibody, human IgG1, kappa, V domains shown, Humanized variant of PR301777) VH: EMQLVESGGGLVQPGGSLKLSCAASGFTFSNYWMNWVRQASGKGLEWVAEIRLKSNNYATHYAESVKGRFTISRDDSKSTVYLQMNSLKTEDTAVYYCTVGTLVYWGQGTLVTVSS VL: DIVLTQSPDSLAVSLGERATINCRASQSVSTSTYNYMHWFQQKPGQPPKLLIKFASNLESGVPDRFSGSGSGTDFTLTISSLQAEDTAVYYCQHSWEIPYTFGQGTKLEIKR | < 0.001 | < 1e-07 | 470000 | – | – | – | – | – | – | 95 | 95 | 96 | 94 | 94 | 94 | 94 | 94 | 94 | 0 | –
4 | PR302064 (antibody, human IgG1, kappa, V domains shown, Humanized variant of PR301777) VH: EMQLVESGGGLVKPGGSLRLSCAASGFTFSNYWMNWVRQAPGKGLEWVAEIRLKSNNYATHYAESVKGRFTISRDDSKSTVYLQMNSLKTEDTAVYYCTVGTLVYWGQGTLVTVSS VL: DIVLTQSPDSLAVSLGERATINCRASQSVSTSTYNYMHWFQQKPGQPPKLLIKFASNLESGVPDRFSGSGSGTDFTLTISSLQAEDTAVYYCQHSWEIPYTFGQGTKLEIKR | < 0.001 | – | – | 0.026 nM and 0.023 nM | 0.03 | 0.208 nM and 0.256 nM | 0.118 nM and 0.142 nM | 0.022 | 0.531 nM and 0.664 nM | 94 | 95 | 94 | 94 | 94 | 95 | 95 | 93 | 95 | 1 | binding result (human UCN3 peptide [23]): no binding (tested: 100 nM); binding result (human UCN2 peptide [24]): no binding (tested: 100 nM)
